For test [1], the target named is IpaB (invasion plasmid antigen B), affinity tag-free recombinant. Briefly: assembly with LPS, anion-exchange purification of the complex, SDS-PAGE gel densitometry; S. flexneri 6 LPS, 2x (1.12 w LPS/w protein); 8 uM IpaC + 1 uM IpaB in 5.1 M urea, 37 C 2 h; Q Sepharose HP, eluted at 50% Buffer B; %Band ratio.
Test [2] shares this target. Put plainly: assembly with LPS, anion-exchange purification of the complex, SDS-PAGE gel densitometry; S. sonnei LPS, 1x (0.56 w LPS/w protein); 8 uM IpaC + 1 uM IpaB in 5.1 M urea, 37 C 2 h; Q Sepharose HP, eluted at 50% Buffer B; %Band ratio.
Test [3] shares this target. Briefly: assembly with LPS, anion-exchange purification of the complex, SDS-PAGE gel densitometry; S. flexneri 2a LPS, 8x (4.48 w LPS/w protein); 8 uM IpaC + 1 uM IpaB in 5.1 M urea, 37 C 2 h; Q Sepharose HP, eluted at 50% Buffer B; %Band ratio.
For test [4] the target is unchanged. Put plainly: assembly with LPS, anion-exchange purification of the complex, SDS-PAGE gel densitometry; S. flexneri 3a LPS, 4x (2.24 w LPS/w protein); 8 uM IpaC + 1 uM IpaB in 5.1 M urea, 37 C 2 h; Q Sepharose HP, eluted at 50% Buffer B; %Band ratio.
For test [5] the target is unchanged. Put plainly: assembly with LPS, anion-exchange purification of the complex, SDS-PAGE gel densitometry; S. flexneri 2a LPS, 4x (2.24 w LPS/w protein); 8 uM IpaC + 1 uM IpaB in 5.1 M urea, 37 C 2 h; Q Sepharose HP, eluted at 50% Buffer B; %Band ratio.
Test [6] shares this target. Briefly: assembly with LPS, anion-exchange purification of the complex, SDS-PAGE gel densitometry; S. flexneri 2a LPS, 2x (1.12 w LPS/w protein); 8 uM IpaC + 1 uM IpaB in 5.1 M urea, 37 C 2 h; Q Sepharose HP, eluted at 50% Buffer B; %Band ratio.
Test [7] has the same target. Put plainly: assembly with LPS, anion-exchange purification of the complex, SDS-PAGE gel densitometry; S. sonnei LPS, 4x (2.24 w LPS/w protein); 8 uM IpaC + 1 uM IpaB in 5.1 M urea, 37 C 2 h; Q Sepharose HP, eluted at 50% Buffer B; %Band ratio.
Test [8] shares this target. Put plainly: assembly with LPS, anion-exchange purification of the complex, SDS-PAGE gel densitometry; S. flexneri 6 LPS, 8x (4.48 w LPS/w protein); 8 uM IpaC + 1 uM IpaB in 5.1 M urea, 37 C 2 h; Q Sepharose HP, eluted at 50% Buffer B; %Band ratio.
Test [9] shares this target. Briefly: assembly with LPS, anion-exchange purification of the complex, SDS-PAGE gel densitometry; S. flexneri 2a LPS, 1x (0.56 w LPS/w protein); 8 uM IpaC + 1 uM IpaB in 5.1 M urea, 37 C 2 h; Q Sepharose HP, eluted at 50% Buffer B; %Band of full-size IpaC divided by %Band of full-size IpaB.
For test [10] the target is unchanged. Briefly: assembly with LPS, anion-exchange purification of the complex, SDS-PAGE gel densitometry; S. flexneri 3a LPS, 2x (1.12 w LPS/w protein); 8 uM IpaC + 1 uM IpaB in 5.1 M urea, 37 C 2 h; Q Sepharose HP, eluted at 50% Buffer B; %Band ratio.
For test [11] the target is unchanged. Briefly: assembly with LPS, anion-exchange purification of the complex, SDS-PAGE gel densitometry; S. flexneri 6 LPS, 1x (0.56 w LPS/w protein); 8 uM IpaC + 1 uM IpaB in 5.1 M urea, 37 C 2 h; Q Sepharose HP, eluted at 50% Buffer B; %Band ratio.
Test [12] has the same target. Put plainly: assembly with LPS, anion-exchange purification of the complex, SDS-PAGE gel densitometry; S. flexneri 6 LPS, 4x (2.24 w LPS/w protein); 8 uM IpaC + 1 uM IpaB in 5.1 M urea, 37 C 2 h; Q Sepharose HP, eluted at 50% Buffer B; %Band ratio.
The target is the same in test [13]. Put plainly: assembly with LPS, anion-exchange purification of the complex, SDS-PAGE gel densitometry; S. flexneri 3a LPS, 8x (4.48 w LPS/w protein); 8 uM IpaC + 1 uM IpaB in 5.1 M urea, 37 C 2 h; Q Sepharose HP, eluted at 50% Buffer B; %Band ratio.
For test [14] the target is unchanged. Put plainly: assembly with LPS, anion-exchange purification of the complex, SDS-PAGE gel densitometry; S. flexneri 3a LPS, 1x (0.56 w LPS/w protein); 8 uM IpaC + 1 uM IpaB in 5.1 M urea, 37 C 2 h; Q Sepharose HP, eluted at 50% Buffer B; %Band ratio.
The target is the same in test [15]. Put plainly: assembly with LPS, anion-exchange purification of the complex, SDS-PAGE gel densitometry; S. sonnei LPS, 2x (1.12 w LPS/w protein); 8 uM IpaC + 1 uM IpaB in 5.1 M urea, 37 C 2 h; Q Sepharose HP, eluted at 50% Buffer B; %Band ratio.
Test [16] has the same target. Briefly: assembly with LPS, anion-exchange purification of the complex, SDS-PAGE gel densitometry; S. sonnei LPS, 8x (4.48 w LPS/w protein); 8 uM IpaC + 1 uM IpaB in 5.1 M urea, 37 C 2 h; Q Sepharose HP, eluted at 50% Buffer B; %Band ratio.

B1: IpaC (invasion plasmid antigen C), affinity tag-free recombinant (natural protein)
chain: MEIQNTKPTQTLYTDISTKQTQSSSETQKSQNYQQIAAHIPLNVGKNPVLTTTLNDDQLLKLSEQVQHDSEIIARLTDKKMKDLSEMSHTLTPENTLDISSLSSNAVSLIISVAVLLSALRTAETKLGSQLSLIAFDATKSAAENIVRQGLAALSSSITGAVTQVGITGIGAKKTHSGISDQKGALRKNLATAQSLEKELAGSKLGLNKQIDTNITSPQTNSSTKFLGKNKLAPDNISLSTEHKTSLSSPDISLQDKIDTQRRTYELNTLSAQQKQNIGRATMETSAVAGNISTSGGRYASALEEEEQLISQASSKQAEEASQVSKEASQATNQLIQKLLNIIDSINQSKNSAASQIAGNIRA
With B1, the IpaC:IpaB ratio in the complex with LPS (gel densitometry) in test [1] is 4.1 IpaC:IpaB; in test [2], 2.6 IpaC:IpaB; in test [3], 9.4 IpaC:IpaB; in test [4], 5.8 IpaC:IpaB; in test [5], 7.8 IpaC:IpaB; in test [6], 6.9 IpaC:IpaB. For the same molecule, the IpaC:IpaB ratio in the complex with LPS (gel densitometry) in test [7] is 9.4 IpaC:IpaB; in test [8], 3.9 IpaC:IpaB; in [9], 3.8 IpaC:IpaB; in [10], 3.8 IpaC:IpaB; in [11], 2.1 IpaC:IpaB; in test [12], 4 IpaC:IpaB. The IpaC:IpaB ratio in the complex with LPS (gel densitometry) in [13] was 5.8 IpaC:IpaB; in [14], 2.5 IpaC:IpaB; in [15], 5.6 IpaC:IpaB; in test [16], 7.2 IpaC:IpaB.

(Values after publication PMC10449495.)
